{"source": "the RNAGym collection of RNA variant scans (doi:10.1093/nar/gkz1192)", "parents": {"B1": {"name": "CPEB3 Ribozyme (parent)", "chain": "UAACAGGGGGCCACAGCAGAAGCGUUCACGUCGCAGCCCCUGUCAGAUUCUGGUGAAUCUGCGAAUUCUGCUGUAUAUCUC"}}}
{"variants_of": "B1", "assay": "self-cleavage, relative activity (ratio to wild type); higher = more cleavage; in vitro, sequencing", "method_in_brief": "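Relative activity was defined as the cleaved/total read fraction for a variant divided by the same fraction for the unmutated ribozyme. CPEB3 self-cleaving ribozyme libraries were made by rounds of error-prone PCR, barcoded, and transcribed in vitro with T7 RNA polymerase for 5 hours at 37°C, and cleavage ran through transcription plus a 15 min DNase I step before EDTA. Illumina sequencing of template-switched reverse transcripts gave the reads, and DNA sequencing mapped the barcodes. Averages come from three batches, using variants with at least 5 reads.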"}
{"variant": "A2C G8A", "self-cleavage": 0.1}
{"variant": "A2C A77G", "self-cleavage": 1.01}
{"variant": "U1C A2C", "self-cleavage": 0.94}
{"variant": "U1C A2G", "self-cleavage": 0.8}
{"variant": "U1C A2U", "self-cleavage": 1.04}
{"variant": "U1A U69A", "self-cleavage": 0.54}
{"variant": "U1A U69C", "self-cleavage": 0.61}
{"variant": "U1C C32A", "self-cleavage": 0.26}
{"variant": "U1C A18U", "self-cleavage": 0.36}
{"variant": "U1C A18G", "self-cleavage": 0.48}
{"variant": "U1C A18C", "self-cleavage": 1.09}
{"variant": "U1C C34U", "self-cleavage": 0.24}
{"variant": "U1C C34A", "self-cleavage": 0.12}
{"variant": "U1A G46A", "self-cleavage": 0.43}
{"variant": "U1G U74C", "self-cleavage": 1.13}
{"variant": "U1A U49C", "self-cleavage": 0.52}
{"variant": "U1A U49A", "self-cleavage": 0.58}
{"variant": "A2G A13G", "self-cleavage": 0.59}
{"variant": "A2G A13U", "self-cleavage": 0.91}
{"variant": "U1C G36A", "self-cleavage": 0.21}
{"variant": "U1C G36C", "self-cleavage": 0.2}
{"variant": "A2C U66C", "self-cleavage": 0.4}
{"variant": "U1A G8A", "self-cleavage": 0.19}
{"variant": "U1C U80C", "self-cleavage": 1}
{"variant": "U1C U80A", "self-cleavage": 0.82}
{"variant": "U1A C37A", "self-cleavage": 0.31}
{"variant": "U1A C37G", "self-cleavage": 1.04}
{"variant": "U1C G30C", "self-cleavage": 0.14}
{"variant": "U1A U26C", "self-cleavage": 0.47}
{"variant": "U1A U26A", "self-cleavage": 1.02}
{"variant": "U1G U41C", "self-cleavage": 1.01}
{"variant": "U1G U41A", "self-cleavage": 0.3}
{"variant": "A2C U76C", "self-cleavage": 1.02}
{"variant": "U1A G9C", "self-cleavage": 0.1}
{"variant": "U1A G9A", "self-cleavage": 0.28}
{"variant": "U1G U72A", "self-cleavage": 0.71}
{"variant": "U1G U72C", "self-cleavage": 1}
{"variant": "U1C A5U", "self-cleavage": 1.02}
{"variant": "U1C A5C", "self-cleavage": 0.82}
{"variant": "U1C A5G", "self-cleavage": 0.68}
{"variant": "U1C U26A", "self-cleavage": 0.81}
{"variant": "U1C U26C", "self-cleavage": 0.38}
{"variant": "U1C A15U", "self-cleavage": 0.55}
{"variant": "U1C A15G", "self-cleavage": 0.6}
{"variant": "U1C A15C", "self-cleavage": 0.62}
{"variant": "U1C G9A", "self-cleavage": 0.43}
{"variant": "U1C G9C", "self-cleavage": 0.39}
{"variant": "A2C A65G", "self-cleavage": 0.46}
{"variant": "U1A C29U", "self-cleavage": 0.52}
{"variant": "U1A G10C", "self-cleavage": 0.36}
{"variant": "U1A G10A", "self-cleavage": 0.25}
{"variant": "A2G A15G", "self-cleavage": 0.53}
{"variant": "A2G A15U", "self-cleavage": 0.41}
{"variant": "U1C U60A", "self-cleavage": 0.42}
{"variant": "U1C U60C", "self-cleavage": 0.39}
{"variant": "U1C", "self-cleavage": 0.84}
{"variant": "U1G", "self-cleavage": 1.01}
{"variant": "A2C C39A", "self-cleavage": 0.49}
{"variant": "U1C G63A", "self-cleavage": 0.84}
{"variant": "U1A U41G", "self-cleavage": 0.27}
{"variant": "U1A U41A", "self-cleavage": 0.2}
{"variant": "U1A U41C", "self-cleavage": 0.89}
{"variant": "U1A U25A", "self-cleavage": 0.34}
{"variant": "U1A U25C", "self-cleavage": 0.41}
{"variant": "U1G C23U", "self-cleavage": 0.49}
{"variant": "U1C A56U", "self-cleavage": 0.52}
{"variant": "U1C A56G", "self-cleavage": 0.73}
{"variant": "A2G A77G", "self-cleavage": 0.64}
{"variant": "A2G A77C", "self-cleavage": 0.54}
{"variant": "A2G A77U", "self-cleavage": 0.62}
{"variant": "U1C C40U", "self-cleavage": 0.3}
{"variant": "U1C C40A", "self-cleavage": 0.18}
{"variant": "U1A U80C", "self-cleavage": 1.14}
{"variant": "U1C C79A", "self-cleavage": 1.03}
{"variant": "U1C C79U", "self-cleavage": 0.8}
{"variant": "U1G U25C", "self-cleavage": 0.13}
{"variant": "U1A A77G", "self-cleavage": 1.12}
{"variant": "U1A A77U", "self-cleavage": 1.05}
{"variant": "A2G C11G", "self-cleavage": 0.15}
{"variant": "A2G C11U", "self-cleavage": 0.51}
{"variant": "U1A U48C", "self-cleavage": 0.63}
{"variant": "U1A G61C", "self-cleavage": 0.29}
{"variant": "U1G G63U", "self-cleavage": 0.81}
{"variant": "A2C G61A", "self-cleavage": 0.48}
{"variant": "A2C A28G", "self-cleavage": 0.51}
{"variant": "U1A G16A", "self-cleavage": 0.38}
{"variant": "U1A G24A", "self-cleavage": 0.25}
{"variant": "A2C U26C", "self-cleavage": 0.55}
{"variant": "U1C C71U", "self-cleavage": 0.54}
{"variant": "U1G A20C", "self-cleavage": 0.55}
{"variant": "U1C U51G", "self-cleavage": 0.97}
{"variant": "U1C U51A", "self-cleavage": 0.8}
{"variant": "U1C U51C", "self-cleavage": 0.7}
{"variant": "A2C G36A", "self-cleavage": 0.22}
{"variant": "A2C U58A", "self-cleavage": 0.2}
{"variant": "U1C G70C", "self-cleavage": 0.35}
{"variant": "U1C G70U", "self-cleavage": 0.32}
{"variant": "U1A U67C", "self-cleavage": 0.18}
{"variant": "U1C U58C", "self-cleavage": 0.63}
{"variant": "U1C U58A", "self-cleavage": 0.46}
{"variant": "A2G A75G", "self-cleavage": 0.54}
{"variant": "A2G A75U", "self-cleavage": 0.84}
{"variant": "U1C U49C", "self-cleavage": 0.37}
{"variant": "U1C U49A", "self-cleavage": 0.61}
{"variant": "U1C C37A", "self-cleavage": 0.16}
{"variant": "U1C C37U", "self-cleavage": 0.37}
{"variant": "U1C G33A", "self-cleavage": 0.32}
{"variant": "U1C G16A", "self-cleavage": 0.08}
{"variant": "U1C G24C", "self-cleavage": 0.31}
{"variant": "U1C C27U", "self-cleavage": 0.38}
{"variant": "U1C U72G", "self-cleavage": 1}
{"variant": "U1C U72C", "self-cleavage": 0.82}
{"variant": "U1C U72A", "self-cleavage": 0.66}
{"variant": "U1C C62U", "self-cleavage": 0.32}
{"variant": "U1G U80A", "self-cleavage": 1.08}
{"variant": "U1C U54G", "self-cleavage": 0.67}
{"variant": "U1C U54C", "self-cleavage": 0.68}
{"variant": "U1C U54A", "self-cleavage": 1.03}
{"variant": "U1G G8C", "self-cleavage": 0.59}
{"variant": "A2G A21C", "self-cleavage": 0.11}
{"variant": "A2G A21G", "self-cleavage": 0.42}
{"variant": "A2G A21U", "self-cleavage": 0.35}
{"variant": "A2C U48C", "self-cleavage": 0.71}
{"variant": "U1C U31C", "self-cleavage": 0.7}
{"variant": "U1C U31A", "self-cleavage": 0.43}
{"variant": "U1A G63A", "self-cleavage": 0.89}
{"variant": "U1C G7A", "self-cleavage": 0.09}
{"variant": "U1C G7C", "self-cleavage": 0.44}
{"variant": "U1A U51C", "self-cleavage": 0.92}
{"variant": "U1A U51A", "self-cleavage": 0.95}
{"variant": "U1C A75U", "self-cleavage": 1.05}
{"variant": "U1C A75G", "self-cleavage": 0.79}
{"variant": "A2G A57G", "self-cleavage": 0.5}
{"variant": "A2G A57U", "self-cleavage": 0.28}
{"variant": "U1C U78G", "self-cleavage": 0.94}
{"variant": "U1C U78A", "self-cleavage": 1.11}
{"variant": "U1C U78C", "self-cleavage": 0.8}
{"variant": "A2C", "self-cleavage": 0.91}
{"variant": "A2G", "self-cleavage": 0.7}
{"variant": "A2G A20U", "self-cleavage": 0.39}
{"variant": "A2G A20G", "self-cleavage": 0.61}
{"variant": "U1G A64C", "self-cleavage": 0.26}
{"variant": "A2C U67C", "self-cleavage": 0.36}
{"variant": "U1C G6A", "self-cleavage": 0.3}
{"variant": "U1C G6C", "self-cleavage": 0.56}
{"variant": "U1C C68G", "self-cleavage": 0.25}
{"variant": "U1C C68A", "self-cleavage": 0.37}
{"variant": "U1C U66C", "self-cleavage": 0.39}
{"variant": "A2C U51G", "self-cleavage": 0.92}
{"variant": "A2C U51A", "self-cleavage": 0.7}
{"variant": "U1C G10C", "self-cleavage": 0.17}
{"variant": "U1C G10A", "self-cleavage": 0.23}
{"variant": "U1A G7A", "self-cleavage": 0.1}
{"variant": "U1A G7U", "self-cleavage": 0.3}
{"variant": "U1A U78C", "self-cleavage": 0.91}
{"variant": "U1A U78A", "self-cleavage": 0.99}
{"variant": "A2G A64U", "self-cleavage": 0.33}
{"variant": "A2G A64G", "self-cleavage": 0.55}
{"variant": "U1G U26C", "self-cleavage": 0.4}
{"variant": "U1C C38A", "self-cleavage": 0.18}
{"variant": "U1A C50A", "self-cleavage": 0.47}
{"variant": "U1C A45C", "self-cleavage": 0.16}
{"variant": "U1C A45G", "self-cleavage": 0.81}
{"variant": "U1C A45U", "self-cleavage": 0.39}
{"variant": "U1C A13G", "self-cleavage": 0.79}
{"variant": "U1C A13U", "self-cleavage": 1.13}
{"variant": "U1C G19U", "self-cleavage": 0.4}
